Assay results as given in PMC6471336, “Production and Characterization of Recombinant Wild Type Uricase from Indonesian Coelacanth (L. menadoensis) and Improvement of Its Thermostability by In Silico Rational Design and Disulphide Bridges Engineering” (International Journal of Molecular Sciences, 2019).

B1: L. menadoensis uricase, wild type (LM-UOX-6His) (enzyme, UniProt M3XGK0 1-306, looked up)
chain: MSHYVSSTRFQKDTDVEFVRTGYGKNIVKVLHIKREGKTHYIKEVEVAVQLALKSRKDYLYGDNSDIIPTDTMKNTVHALAKLKGINTIEEFAMDICEHFLTSFNHVTRANTYVEEAPWKRMEKNEVKHVHAFIYSPEATRFCEVEHHQNEPPVVHSGIKDMKVLKTTQSGFEGFVKDRFTTLPEVTDRCFSTVIYSKWLYNRSKNIDFDAAWKTVYDVIIEKFAGPYECGEYSPSVQKTLYETQVLCLNRVPEIEEVEIVMPNKHYFTIDMSKIGIVNKDEVLLPLDNPSGNITGTVRRKAHSKL
notes: Uricase (urate oxidase) of Latimeria menadoensis, 306 amino acids; synthetic cDNA amplified with primers from the start codon to the last codon (no stop codon), cloned NdeI/XhoI into pET20b(+); The His6 tag is joined to the protein by two residues from the XhoI site; also called WT; WT LM-UOX; source: E. coli BL21(DE3), purified (Ni-NTA IMAC, gel filtration); not shown: His6, C-terminal, kept
B2: L. menadoensis uricase S136C mutant (enzyme, UniProt M3XGK0 1-306, looked up)
chain: MSHYVSSTRFQKDTDVEFVRTGYGKNIVKVLHIKREGKTHYIKEVEVAVQLALKSRKDYLYGDNSDIIPTDTMKNTVHALAKLKGINTIEEFAMDICEHFLTSFNHVTRANTYVEEAPWKRMEKNEVKHVHAFIYCPEATRFCEVEHHQNEPPVVHSGIKDMKVLKTTQSGFEGFVKDRFTTLPEVTDRCFSTVIYSKWLYNRSKNIDFDAAWKTVYDVIIEKFAGPYECGEYSPSVQKTLYETQVLCLNRVPEIEEVEIVMPNKHYFTIDMSKIGIVNKDEVLLPLDNPSGNITGTVRRKAHSKL
notes: Uricase (urate oxidase) of Latimeria menadoensis, 306 amino acids, same construct as the wild type (pET20LM-UOX) with S136C by site-directed mutagenesis; His6 tag joined by two residues from the XhoI site, as in m1; source: E. coli BL21(DE3), purified (Ni-NTA IMAC, gel filtration); not shown: His6, C-terminal, kept
B3: L. menadoensis uricase N289C mutant (enzyme, UniProt M3XGK0 1-306, looked up)
chain: MSHYVSSTRFQKDTDVEFVRTGYGKNIVKVLHIKREGKTHYIKEVEVAVQLALKSRKDYLYGDNSDIIPTDTMKNTVHALAKLKGINTIEEFAMDICEHFLTSFNHVTRANTYVEEAPWKRMEKNEVKHVHAFIYSPEATRFCEVEHHQNEPPVVHSGIKDMKVLKTTQSGFEGFVKDRFTTLPEVTDRCFSTVIYSKWLYNRSKNIDFDAAWKTVYDVIIEKFAGPYECGEYSPSVQKTLYETQVLCLNRVPEIEEVEIVMPNKHYFTIDMSKIGIVNKDEVLLPLDCPSGNITGTVRRKAHSKL
notes: Uricase (urate oxidase) of Latimeria menadoensis, 306 amino acids, same construct as the wild type (pET20LM-UOX) with N289C by site-directed mutagenesis; His6 tag joined by two residues from the XhoI site, as in m1; source: E. coli BL21(DE3), purified (Ni-NTA IMAC, gel filtration); not shown: His6, C-terminal, kept
B4: L. menadoensis uricase D288C mutant (enzyme, UniProt M3XGK0 1-306, looked up)
chain: MSHYVSSTRFQKDTDVEFVRTGYGKNIVKVLHIKREGKTHYIKEVEVAVQLALKSRKDYLYGDNSDIIPTDTMKNTVHALAKLKGINTIEEFAMDICEHFLTSFNHVTRANTYVEEAPWKRMEKNEVKHVHAFIYSPEATRFCEVEHHQNEPPVVHSGIKDMKVLKTTQSGFEGFVKDRFTTLPEVTDRCFSTVIYSKWLYNRSKNIDFDAAWKTVYDVIIEKFAGPYECGEYSPSVQKTLYETQVLCLNRVPEIEEVEIVMPNKHYFTIDMSKIGIVNKDEVLLPLCNPSGNITGTVRRKAHSKL
notes: Uricase (urate oxidase) of Latimeria menadoensis, 306 amino acids, same construct as the wild type (pET20LM-UOX) with D288C by site-directed mutagenesis; His6 tag joined by two residues from the XhoI site, as in m1; source: E. coli BL21(DE3), purified (Ni-NTA IMAC, gel filtration); not shown: His6, C-terminal, kept
B5: L. menadoensis uricase I27C/N289C mutant (enzyme, UniProt M3XGK0 1-306, looked up)
chain: MSHYVSSTRFQKDTDVEFVRTGYGKNCVKVLHIKREGKTHYIKEVEVAVQLALKSRKDYLYGDNSDIIPTDTMKNTVHALAKLKGINTIEEFAMDICEHFLTSFNHVTRANTYVEEAPWKRMEKNEVKHVHAFIYSPEATRFCEVEHHQNEPPVVHSGIKDMKVLKTTQSGFEGFVKDRFTTLPEVTDRCFSTVIYSKWLYNRSKNIDFDAAWKTVYDVIIEKFAGPYECGEYSPSVQKTLYETQVLCLNRVPEIEEVEIVMPNKHYFTIDMSKIGIVNKDEVLLPLDCPSGNITGTVRRKAHSKL
notes: His6 tag joined by two residues from the XhoI site, as in m1; which cysteines pair (C27 with C289 of the other subunit of a dimer) is a prediction only; source: E. coli BL21(DE3), purified (Ni-NTA IMAC, gel filtration); not shown: His6, C-terminal, kept
B6: L. menadoensis uricase A132C/A225C mutant (enzyme, UniProt M3XGK0 1-306, looked up)
chain: MSHYVSSTRFQKDTDVEFVRTGYGKNIVKVLHIKREGKTHYIKEVEVAVQLALKSRKDYLYGDNSDIIPTDTMKNTVHALAKLKGINTIEEFAMDICEHFLTSFNHVTRANTYVEEAPWKRMEKNEVKHVHCFIYSPEATRFCEVEHHQNEPPVVHSGIKDMKVLKTTQSGFEGFVKDRFTTLPEVTDRCFSTVIYSKWLYNRSKNIDFDAAWKTVYDVIIEKFCGPYECGEYSPSVQKTLYETQVLCLNRVPEIEEVEIVMPNKHYFTIDMSKIGIVNKDEVLLPLDNPSGNITGTVRRKAHSKL
notes: His6 tag joined by two residues from the XhoI site, as in m1; source: E. coli BL21(DE3), purified (Ni-NTA IMAC, gel filtration); not shown: His6, C-terminal, kept

Experiments:
purified protein = substrate: O=c1[nH]c(=O)c2[nH]c(=O)[nH]c2[nH]1; assay: purified protein; assay type: biochemical, Latimeria menadoensis; conditions: 50 mM sodium borate pH 8.0, 30 °C, 15-120 µM uric acid
[1] = target: the molecule itself; assay: SEC; 16/60 Sephacryl S-300 HR gel-filtration column; molecular weight under native condition calculated from the retention volume (Kav) against a calibration curve

| Protein | Km (purified protein) [µM] | kcat (purified protein) [s⁻¹] | kcat/Km (purified protein) [M⁻¹ s⁻¹] | stoichiometry N [1] |
| --- | --- | --- | --- | --- |
| B1 | 18.43 ± 0.4 | 29.9 ± 0.3 | 1.62e+06 | 4 |
| B2 | 15.28 ± 0.1 | 22.49 ± 0.1 | 1.47e+06 | 4 |
| B3 | 30.46 ± 0.1 | 34.06 ± 0.1 | 1.12e+06 | 4 |
| B4 | 189.65 ± 0.2 | 65.07 ± 0.3 | 340000 | 4 |
| B5 | 35.39 ± 0.1 | 32.58 ± 0.2 | 920000 | 4 |
| B6 | 39.19 ± 0.5 | 58.2 ± 0.6 | 1.49e+06 | 4 |
